# Laboratory results from patent US20100021477A1 (Janssen / Centocor, published 2010).
# Residue numbers refer to the chain shown, from its start.
# B1: Fab E7 (Fab, V domains shown)
# VH: QVQLVQSGAEVKKPGSSVKVSCKASGGTFSSYAISWVRQAPGQGLEWMGGIIPIFGTANYAQKFQGRVTITADESTSTAYMELSSLRSEDTAVYYCAREGGEVYDWEYYLDYWGQGTLVTVSS
# VL: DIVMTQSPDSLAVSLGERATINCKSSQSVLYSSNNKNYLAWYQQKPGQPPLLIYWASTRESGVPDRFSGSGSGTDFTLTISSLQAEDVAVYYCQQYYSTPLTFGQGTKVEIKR
# notes: also called E7 (Hc/Lc)
# B2: Fab E5 (Fab, V domains shown)
# VH: QVQLVQSGAEVKKPGSSVKVSCKASGGTFSSYAISWVRQAPGQGLEWMGWIIPYNGNANYAQKFQGRVTITADESTSTAYMELSSLRSEDTAVYYCARHTPVRDLDYWGQGTLVTVSS
# VL: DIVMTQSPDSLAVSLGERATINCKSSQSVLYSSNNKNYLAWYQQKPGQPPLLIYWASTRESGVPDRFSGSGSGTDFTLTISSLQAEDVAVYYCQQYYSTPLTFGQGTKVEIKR
# notes: also called E5 (Hc/Lc)
# B3: Fab C2 (Fab, V domains shown)
# VH: QVQLVQSGAEVKKPGSSVKVSCKASGGTFSSYAISWVRQAPGQGLEWMGGIIPINGNANYAQKFQGRVTITADESTSTAYMELSSLRSEDTAVYYCARRAGMRVQTYYFFDYWGQGTLVTVSS
# VL: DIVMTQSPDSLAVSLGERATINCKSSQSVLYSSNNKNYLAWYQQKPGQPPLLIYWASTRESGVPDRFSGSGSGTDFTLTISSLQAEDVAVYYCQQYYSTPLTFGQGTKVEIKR
# notes: also called C2 (Hc/Lc)
# B4: Fab D11 (Fab, V domains shown)
# VH: QVQLVQSGAEVKKPGSSVKVSCKASGGTFSSYAISWVRQAPGQGLEWMGGIIPIFGTANYAQKFQGRVTITADESTSTAYMELSSLRSEDTAVYYCARIRWGGWFRGYLDYWGQGTLVTVSS
# VL: not shown
# notes: also called D11(Hc/Lc)
# B5: Fab C6 (Fab, V domains shown)
# VH: QVQLVQSGAEVKKPGSSVKVSCKASGGTFSSYGISWVRQAPGQGLEWMGGIIPIFGTANYAQKFQGRVTITADESTSTAYMELSSLRSEDTAVYYCARLCVSPAWDQCFDYWGQGTLVTVSS
# VL: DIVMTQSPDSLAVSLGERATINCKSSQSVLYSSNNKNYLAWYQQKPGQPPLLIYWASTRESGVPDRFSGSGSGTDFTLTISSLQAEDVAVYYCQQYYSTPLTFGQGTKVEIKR
# notes: also called C6 (Hc/Lc)
# B6: Fab F4 (Fab, V domains shown)
# VH: QVQLVQSGAEVKKPGSSVKVSCKASGGTFSSYGISWVRQAPGQGLEWMGGIIPIFGTANYAQKFQGRVTITADESTSTAYMELSSLRSEDTAVYYCARDFGVYTWLGQTFDYWGQGTLVTVSS
# VL: not shown
# notes: also called F4 (Hc/Lc)
# B7: Fab D6 (Fab, V domains shown)
# VH: QVQLVQSGAEVKKPGSSVKVSCKASGGTFSSYAISWVRQAPGQGLEWMGGIIPIFGTANYAQKFQGRVTITADESTSTAYMELSSLRSEDTAVYYCARGIIGINLVVLDYWGQGTLVTVSS
# VL: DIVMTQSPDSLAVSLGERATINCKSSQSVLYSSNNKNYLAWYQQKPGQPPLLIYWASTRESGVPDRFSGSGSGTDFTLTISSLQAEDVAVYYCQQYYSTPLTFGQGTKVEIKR
# notes: also called D6 (Hc/Lc)
# B8: Fab F6 (Fab, V domains shown)
# VH: B7 VH with I103T, N104I, L105T, V106Y, L108F
# VL: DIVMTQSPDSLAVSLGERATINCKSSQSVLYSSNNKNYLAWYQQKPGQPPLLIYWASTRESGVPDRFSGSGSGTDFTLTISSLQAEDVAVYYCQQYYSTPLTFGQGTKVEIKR
# notes: also called F6 (Hc/Lc)
# Target: T1, Bovine Serum Albumin (BSA) (bovine, UniProt P02769 25-607)
# Assay: BIAcore
# T1 sequence (P02769 25-607 limits assumed): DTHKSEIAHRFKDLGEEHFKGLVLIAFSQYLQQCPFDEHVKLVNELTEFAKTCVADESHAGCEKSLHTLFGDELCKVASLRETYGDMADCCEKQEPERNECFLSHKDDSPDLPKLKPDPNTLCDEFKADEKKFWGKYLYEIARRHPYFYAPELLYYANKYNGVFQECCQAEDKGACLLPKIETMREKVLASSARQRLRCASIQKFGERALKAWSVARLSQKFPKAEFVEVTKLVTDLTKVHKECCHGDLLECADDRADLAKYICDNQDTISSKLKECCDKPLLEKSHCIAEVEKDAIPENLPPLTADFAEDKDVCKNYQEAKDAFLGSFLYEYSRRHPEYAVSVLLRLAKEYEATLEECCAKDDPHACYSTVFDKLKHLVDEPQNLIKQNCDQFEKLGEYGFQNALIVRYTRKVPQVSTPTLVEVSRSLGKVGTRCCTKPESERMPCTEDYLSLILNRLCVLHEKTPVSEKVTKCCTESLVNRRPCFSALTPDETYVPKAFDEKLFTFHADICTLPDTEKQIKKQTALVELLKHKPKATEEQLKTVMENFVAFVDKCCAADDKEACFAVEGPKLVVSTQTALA
row,Binder,binding result
1,B1,no binding
2,B2,no binding

# Target: T2, Hen-Egg White Lysozyme (HEL) (hen, UniProt P00698 19-147)
# Assay: BIAcore
# T2 sequence (P00698 19-147 limits assumed): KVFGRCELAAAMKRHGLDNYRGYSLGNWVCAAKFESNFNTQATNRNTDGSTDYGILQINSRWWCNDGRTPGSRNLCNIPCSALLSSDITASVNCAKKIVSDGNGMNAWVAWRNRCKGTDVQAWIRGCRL
row,Binder,binding result
1,B3,no binding
2,B4,no binding
3,B5,no binding
4,B6,no binding
5,B7,no binding
6,B8,no binding

# Target: T1, Bovine Serum Albumin (BSA)
# Assay: BIAcore, BSA on the chip (40 RU)
row,Binder,binding result
1,B5,no binding

# Target: T1, Bovine Serum Albumin (BSA)
# Assay: BIAcore, BSA on the chip (40 RU), purified Fab
Binder,koff,kon
B3,0.00169 s⁻¹,60000 M⁻¹ s⁻¹
B6,0.00048 s⁻¹,51000 M⁻¹ s⁻¹
B7,0.00195 s⁻¹,572000 M⁻¹ s⁻¹
B8,0.0113 s⁻¹,430000 M⁻¹ s⁻¹

# Target: T2, Hen-Egg White Lysozyme (HEL)
# Assay: BIAcore, lysozyme on the chip (10 RU), purified Fab
Binder,koff,kon
B1,0.12 s⁻¹,460000 M⁻¹ s⁻¹
B2,0.00233 s⁻¹,227000 M⁻¹ s⁻¹

# Target: T1, Bovine Serum Albumin (BSA)
# Assay: BIAcore, BSA on the chip (40 RU), purified Fab; apparent KD
row,Binder,Kd
1,B3,28 nM
2,B6,9 nM
3,B7,4 nM
4,B8,26 nM

# Target: T2, Hen-Egg White Lysozyme (HEL)
# Assay: BIAcore, lysozyme on the chip (10 RU), purified Fab; apparent KD
row,Binder,Kd
1,B1,260 nM
2,B2,10 nM
